Target: IPO11 (Importin-11) (UniProt Q9UI26)
Assay: co-immunoprecipitation, western blot
Settings: reference: wild-type RPRM; sites S98

RPRM (Reprimo) (from UniProt Q9NS64) RPRM S98A
binding against the reference: stronger

Reference: PMC9519624
